Assay results from article PMC517709.

The substances below were run on a1;alpha2 (Saccharomyces cerevisiae;Saccharomyces cerevisiae) (assay: EMSA). Settings: 1.4 uM a1 constant, 5-fold dilutions of alpha2 from 82 nM, protein dilution buffer 50 mM Tris pH 7.6, 1 mM EDTA, 500 mM NaCl, 10 mM 2-mercaptoethanol ….

Which binding signal (fold decrease in affinity vs HO(10)) does the source give for CDC25 ORF site here?
The binding signal (fold decrease in affinity vs HO(10)) was 5.

PRM8 ORF site was tested. Which binding signal (fold decrease in affinity vs HO(10)) did it give?
Its binding signal (fold decrease in affinity vs HO(10)) is 5.

How did the binding signal (fold decrease in affinity vs HO(10)) turn out when PRM9 ORF site was run?
The binding signal (fold decrease in affinity vs HO(10)) was 10.

URB1 ORF site was tested. Which binding signal (fold decrease in affinity vs HO(10)) did it give?
The binding signal (fold decrease in affinity vs HO(10)) was 25.

For YKL162C ORF site, which binding signal (fold decrease in affinity vs HO(10)) is on record?
Its binding signal (fold decrease in affinity vs HO(10)) is 10.
